Laboratory results from paper doi:10.1101/2024.10.30.620795 (2024).

B1: 1690 (TCR)
alpha TRAV8-4 TRAJ10 CDR3: CAVSDLRVLTGGGNKLTF
beta TRBV7-9 TRBJ2-1 CDR3: CASSLALAGRNYNEQFF
B2: 5766 (TCR)
alpha TRAV12-1 TRAJ43 CDR3: CVVNMYDDMRF
beta TRBV5-1 TRBJ2-2 CDR3: CASIDSNTGELFF
B3: 10749 (TCR)
alpha TRAV12-1 TRAJ20 CDR3: CVVNKEDKLSF
beta TRBV20-1 TRBJ2-2 CDR3: CSARDLLAANTGELFF
B4: 6688 (TCR)
alpha TRAV12-1 TRAJ36 CDR3: CVVNKEDNLFF
beta TRBV9 TRBJ2-2 CDR3: CASSGGIETSGNTGELFF
B5: 6579 (TCR)
alpha TRAV12-1 TRAJ10 CDR3: CVVNSPEGGGNKLTF
beta TRBV7-2 TRBJ1-1 CDR3: CASSSLNSLEAFF
B6: 3695 (TCR)
alpha TRAV12-1 TRAJ20 CDR3: CVVNWYDYKLSF
beta TRBV30 TRBJ2-2 CDR3: CAWINDQNTGELFF
B7: 9825 (TCR)
alpha TRAV12-1 TRAJ43 CDR3: CVVNELDDMRF
beta TRBV5-1 TRBJ2-2 CDR3: CASAGPNTGELFF
B8: 7411 (TCR)
alpha TRAV12-1 TRAJ45 CDR3: CVVNRADGLTF
beta TRBV12-3 TRBJ2-2 CDR3: CASTDGNTGELFF
B9: 9973 (TCR)
alpha TRAV39 TRAJ54 CDR3: CAVDSSFQGAQKLVF
beta TRBV6-2 TRBJ2-7 CDR3: CASSLPDSYEQYF
B10: 96 (TCR)
alpha TRAV38-1 TRAJ57 CDR3: CAFSPGGSEKLVF
beta TRBV5-1 TRBJ2-7 CDR3: CASSLGRFLRGDWDYEQYF
B11: 99 (TCR)
alpha TRAV5 TRAJ24 CDR3: CAERRGKLQF
beta TRBV15 TRBJ2-5 CDR3: CATSRGPGGSKAGETQYF
B12: 84 (TCR)
alpha TRAV8-3 TRAJ24 CDR3: CAVGLTDSWGKLQF
beta TRBV5-8 TRBJ2-1 CDR3: CASSLAIRGIIDNEQFF

What was measured:
Assay in all cases: activation reporter or marker
[1] = molecular target: T1, A*01/LTD peptide on A*01/LTD (human)
T1 peptide: LTDEMIAQY

[2] = molecular target: T2, A*02/YLQ peptide on A*02/YLQ (human)
T2 peptide: YLQPRTFLL

[3] = molecular target: T3, A*24/QYI peptide on A*24/QYI (human)
T3 peptide: QYIKWPWYI

Row | Binder | binding result [2] | other results
1 | B1 | – | binding result [1]: no recognition
2 | B2 | recognises | –
3 | B3 | recognises | –
4 | B4 | recognises | –
5 | B5 | recognises | –
6 | B6 | recognises | –
7 | B7 | recognises | –
8 | B8 | recognises | –
9 | B9 | no recognition | –
10 | B10 | – | binding result [3]: no recognition
11 | B11 | – | binding result [1]: recognises
12 | B12 | – | binding result [3]: no recognition
